Data set [1] deals with FBA3 in soluble extracts of Chlamydomonas cultures (Chlamydomonas reinhardtii (endogenous in Chlamydomonas cultures)). Kind of data set: SEC. On the technique in general: SEC sorts molecules by how far they enter the pores of the column.
Data set [2] deals with the molecule itself. Put plainly: SEC.

One may read the stoichiometry N as a count of units in the complex or per binding partner. For the molecule “FBA3 in soluble extracts of Chlamydomonas cultures (enzyme)”, in data set [1], the stoichiometry N stood at 4.

B1: recombinant fructose-1,6-bisphosphate aldolase 3 from Chlamydomonas reinhardtii (CrFBA3) (enzyme, UniProt Q42690 28-377, looked up)
chain: GKYDEELIKTAGTVASKGRGILAMDESNATCGKRLDSIGVENTEENRRAYRELLVTAPGLGQYISGAILFEETLYQSTASGKKFVDVMKEQNIVPGIKVDKGLVPLSNTNGESWCMGLDGLDKRCAEYYKAGARFAKWRSVVSIPHGPSIIAARDCAYGLARYAAIAQNAGLVPIVEPEVLLDGEHDIDRCLEVQEAIWAETFKYMADNKVMFEGILLKPAMVTPGADCKNKAGPAKVAEYTLKMLRRRVPPAVPGIMFLSGGQSELESTLNLNAMNQSPNPWHVSFSYARALQNTVLKTWQGKPENVQAAQAALLKRAKANSDAQQGKYDATTEGKEAAQGMYEKGYVY
Take B1: the “stoichiometry N” value in data set [2] was 4.

(Values after article doi:10.1101/2021.12.28.474321 (bioRxiv, 2021).)
